Data published in the Human Domainome abundance scans (Beltran et al. 2025).

B1: Connector enhancer of kinase suppressor of ras 2, residues 9 to 71; numbered along this chain, Q8WXI2 (parent)
chain: SKWSPSQVVDWMKGLDDCLQQYIKNFEREKISGDQLLRITHQELEDLGVSRIGHQELILEAVD
B2: SWI/SNF-related matrix-associated actin-dependent regulator of chromatin subfamily B member 1, residues 181 to 248; numbered along this chain, Q12824 (parent)
chain: SQPEVLVPIRLDMEIDGQKLRDAFTWNMNEKLMTPEMFSEILCDDLDLNPLTFVPAIASAIRQQIESY

Variants of: B1
Assay: abundance fitness (aPCA) (normalised: wild type 0, dead -1); higher = more abundant; growth selection in yeast, the domain comes from the species named
Settings: Homo sapiens

Abundance fitness of substitutions, site by site:
S1: G -0.134; D -0.028; A -0.2; N 0.063; E -0.283; I 0.038; V -0.015; T -0.198; K 0.015; F -0.13; C -0.07; W -0.22; P -0.653; L -0.154
D10: E 0.096; M -0.169; I -0.258; K -0.161; N -0.087; S -0.127; P -0.929; G -0.122; F -0.34; V -0.327; T -0.18; L -0.256; R -0.176
W11: H -0.738; A -0.95; P -0.854; S -0.782; Y -0.425; L -0.896; I -1; C -0.834; E -0.59; V -0.749; R -0.716; N -0.674; Q -0.681; M -0.943; F -0.333; D -0.65; K -0.564; G -0.675
S4: H -0.385; G -0.128; T -0.053; Y -0.491; K -0.141; F -0.656; D -0.027; P -0.393; M -0.273; Q -0.676; A -0.835; I -0.567; C -0.183; V -0.496; W -0.958; N 0.001
K13: C -0.356; H -0.13; F -0.375; A -0.196; E -0.352
V8: Q -0.947; Y -1.01; P -0.773; C -0.716; T -0.523; S -0.749; D -0.783; N -0.973; F -0.861; R -0.872; M -0.771; W -1.05; H -0.878; K -0.88; I -0.524; L -0.775; G -0.851
P5: D -0.275; T 0.043; M -0.377; V -0.047; E -0.336; Q -0.315; G -0.37; A -0.055; F -0.161; C 0.026; S -0.007; N 0.005; W -0.095; K -0.514; Y 0; I -0.233
M12: V -0.266; T -0.849; I -0.165; Y -0.386; S -0.8; L -0.188; K -0.827; G -0.757; A -0.658; P -1; R -1.01; F -0.096; H -0.766; D -0.706; N -1; Q -1.06
W3: K -0.409; N -0.545; I -0.053; S -0.504; A -0.653; E -0.725; L -0.236; Y -0.6; G -0.597; F -0.563; P -0.764; T -1.05; D -0.393; C -0.713; R -0.498; H -0.772
K2: Y -0.012; T 0.015; R -0.325; G -0.059; E -0.29; N -0.049; W -0.291; P -0.167; V -0.133; S -0.003; A -0.239; D -0.053; H 0.047; I -0.09; M -0.121; L -0.041; F -0.025; C -0.084
S6: V -0.076; C -0.195; T 0.015; M -0.043; E -0.033; G -0.052; I -0.17; H -0.04; N 0.016; D 0.026; F -0.287; Q -0.003; W -0.291; P -0.328; R -0.043; A 0.036; Y -0.166
V9: T -0.11; Y -0.757; S -0.207; E -0.374; D -0.66; C -0.054; W -0.863; K -0.334; I -0.035; H -0.774; Q -0.217; G -0.128; A -0.064; F -0.764; R -0.268; P -0.888; N -0.562; M -0.159
Q7: C -0.574; D -0.07; A -0.211; I -0.748; E -0.006; W -0.803; M -0.12; G -0.457; P -0.666; H -0.301; K -0.227; L -0.743; V -0.631; T -0.488; Y -0.777; F -0.713; N -0.331; S -0.45

Variants of: B2
Assay: as above
Settings: Homo sapiens

Abundance fitness of substitutions, site by site:
R62: P -0.718; M -0.619; Q -0.192; Y -0.119; T -0.3; C -0.629; W -0.75; A -0.66; N -0.256; I -0.824; K -0.043; H -0.239; S -0.386; L -0.553; F -0.69
E66: P -0.919; H -0.45; M -0.215; I -0.276; N -0.227; D -0.073; Y -0.09; L -0.229; K -0.106; S -0.06; W -0.313; Q -0.432; C -0.385; T -0.169; V -0.142; G -0.316; A 0.096
Y68: L -0.536; K -0.47; H -0.093; N -0.384; G -0.661; C -0.643; D -0.521; S -0.427; W 0.165; F -0.183; M -0.641; I -0.541; A -0.127; T -0.444; Q -0.185; V -0.373; P -0.473
Q63: T -0.043; R -0.115; F -0.232; C -0.129; Y 0.105; L -0.276; N -0.038; W -0.467; E -0.163; A -0.057; D -0.019; M -0.257; K -0.067; S 0.011; P -0.758; V -0.293
I65: W -0.817; L -0.069; R -0.543; V -0.232; E -0.994; T -0.141; M -0.477; C 0.036; G -1.05; P -0.689; Q -0.852
A60: S 0.076; L -0.72; P -0.974; V -0.286; Q 0.068; N -0.28; R -0.285; T -0.081; W -0.71; Y -0.637
S67: Y -0.179; C 0.003; M -0.103; A 0.046; N 0.082; H -0.089; E -0.011; G -0.012; W -0.234; I -0.078; P -0.055; F -0.06; R 0.039; D -0.055; K -0.2; T -0.101; V -0.098
Q64: S -0.563; H -0.741; F -0.584; Y -0.795; V -0.941; A -0.354; M -0.904; I -0.898; K -0.97; R -0.709; L -0.52; T -0.658; C -0.863; W -0.618; P -0.878; D -1.22; E -0.338
I61: G -0.854; K -0.75; W -0.989; L -0.725; D -0.827; S -1.06; V -0.536; R -0.878; T -0.594; C -0.956; M -0.461; A -0.763
